The Immune Epitope Database (IEDB)
Values belong to the sequence of their own block, whether it stands above or below them.

Experiments:
[1] = biological target: HLA-A*31:01; experiment: IEDB peptide-MHC binding, purified MHC/direct/fluorescence; filed as Kd, often an IC50 or EC50 that approximates it; ≥ and ≤ were set here for values at or beyond the usual limits of such assays
[2] = biological target: HLA-B*27:05; experiment: as above
[3] = biological target: HLA-A*26:01; experiment: as above
[4] = biological target: HLA-B*08:01; experiment: as above
[5] = biological target: HLA-A*01:01; experiment: as above
[6] = biological target: HLA-A*03:01; experiment: as above
[7] = biological target: HLA-B*44:02; experiment: as above
[8] = biological target: HLA-B*40:01; experiment: as above
[9] = biological target: HLA-A*69:01; experiment: as above
[10] = biological target: HLA-A*11:01; experiment: as above
[11] = biological target: HLA-B*58:01; experiment: as above
[12] = biological target: HLA-B*15:01; experiment: as above
[13] = biological target: HLA-A*02:01; experiment: as above
[14] = biological target: HLA-B*07:02; experiment: as above
[15] = biological target: HLA-A*24:03; experiment: as above
[16] = biological target: HLA-B*15:01; experiment: IEDB peptide-MHC binding, purified MHC/competitive/radioactivity; filed as Kd, often an IC50 or EC50 that approximates it; ≥ and ≤ were set here for values at or beyond the usual limits of such assays
[17] = biological target: HLA-A*24:02; experiment: IEDB peptide-MHC binding, purified MHC/competitive/fluorescence; ≥ and ≤ were set here for values at or beyond the usual limits of such assays
[18] = biological target: HLA-A*02:01; experiment: as above
[19] = biological target: HLA-B*53:01; experiment: IEDB peptide-MHC binding, purified MHC/competitive/radioactivity; filed as Kd, often an IC50 or EC50 that approximates it; ≥ and ≤ were set here for values at or beyond the usual limits of such assays
[20] = biological target: HLA-B*51:01; experiment: as above
[21] = biological target: HLA-B*15:17; experiment: IEDB peptide-MHC binding, purified MHC/competitive/fluorescence; filed as Kd, often an IC50 or EC50 that approximates it; ≥ and ≤ were set here for values at or beyond the usual limits of such assays; conditions: source organism: Homo sapiens
[22] = biological target: HLA-A*69:01; experiment: as above; conditions: source organism: Homo sapiens
[23] = biological target: HLA-B*39:01; experiment: as above; conditions: source organism: Homo sapiens
[24] = biological target: HLA-A*32:01; experiment: IEDB peptide-MHC binding, purified MHC/competitive/radioactivity; filed as Kd, often an IC50 or EC50 that approximates it; ≥ and ≤ were set here for values at or beyond the usual limits of such assays
[25] = biological target: HLA-A*03:01; experiment: as above
[26] = biological target: HLA-A*30:01; experiment: as above; conditions: source organism: Dengue virus 4 Philippines/H241/1956
[27] = biological target: HLA-A*30:02; experiment: as above
[28] = biological target: HLA-A*26:01; experiment: as above
[29] = biological target: HLA-A*01:01; experiment: as above
[30] = biological target: HLA-B*51:01; experiment: IEDB peptide-MHC binding, purified MHC/competitive/fluorescence; filed as Kd, often an IC50 or EC50 that approximates it; ≥ and ≤ were set here for values at or beyond the usual limits of such assays; conditions: source organism: Kurkino virus
[31] = biological target: HLA-A*11:01; experiment: IEDB peptide-MHC binding, purified MHC/competitive/radioactivity; filed as Kd, often an IC50 or EC50 that approximates it; ≥ and ≤ were set here for values at or beyond the usual limits of such assays; conditions: source organism: Dengue virus 2 Jamaica/1409/1983
[32] = biological target: HLA-B*18:01; experiment: IEDB peptide-MHC binding, purified MHC/direct/fluorescence; filed as Kd, often an IC50 or EC50 that approximates it; ≥ and ≤ were set here for values at or beyond the usual limits of such assays; conditions: source organism: Giardia lamblia ATCC 50803
[33] = source organism: Brucella abortus
[34] = source organism: Giardia lamblia ATCC 50803
[35] = source organism: Vaccinia virus WR
[36] = source organism: Zaire ebolavirus
[37] = source organism: Dengue virus 4 Philippines/H241/1956
[38] = source organism: Dengue virus 1 Brazil/97-11/1997
[39] = source organism: Pseudomonas viridiflava
[40] = source organism: Vibrio parahaemolyticus
[41] = source organism: Dengue virus 3 Martinique/1243/1999
[42] = source organism: Sudan ebolavirus
[43] = source organism: Dengue virus 3 Sri Lanka/1266/2000
[44] = source organism: Dengue virus 2 Jamaica/1409/1983
[45] = source organism: Vaccinia virus Copenhagen
[46] = source organism: Salmonella enterica subsp. enterica serovar Typhi
[47] = source organism: Dengue virus 2 Peru/IQT2913/1996

Sequence: AENGWGFYF
Kd [1, 33]: ≥ 20 µM | Kd [2, 33]: ≥ 20 µM | Kd [3, 33]: ≥ 20 µM | Kd [4, 33]: ≥ 20 µM | Kd [5, 33]: ≥ 20 µM | Kd [6, 33]: ≥ 20 µM | Kd [7, 33]: 6.42 µM | Kd ([8]; source organism: Brucella suis): 0.0289 µM | Kd [9, 33]: ≥ 20 µM | Kd [10, 33]: ≥ 20 µM | Kd [11, 33]: ≥ 20 µM | Kd ([12]; source organism: Brucella suis): 0.285 µM | Kd [13, 33]: ≥ 20 µM | Kd [14, 33]: ≥ 20 µM

Sequence: ATPPSLVHF
Kd [15, 34]: 0.152 µM

Sequence: AVFMLMETM
Kd [16, 35]: 0.026 µM

Sequence: CLHHAYQGD
IC50 [17, 36]: ≥ 92 µM | IC50 [18, 36]: ≥ 119 µM

Sequence: CPNERRAWNF
Kd [19, 37]: 0.0706 µM

Sequence: DPRRCLKPVI
Kd [20, 38]: 10.5 µM

Sequence: DPSSGYYST
IC50 [17, 36]: ≥ 151 µM

Kd [1, 39]: ≥ 20 µM | Kd [15, 39]: ≥ 20 µM | Kd [2, 39]: ≥ 20 µM | Kd [3, 39]: ≥ 20 µM | Kd [4, 39]: ≥ 20 µM | Kd [5, 39]: ≥ 20 µM | Kd [6, 39]: ≥ 20 µM | Kd [8, 39]: ≥ 20 µM | Kd [9, 39]: ≥ 20 µM | Kd [10, 39]: ≥ 20 µM | Kd [11, 39]: ≥ 20 µM | Kd [12, 39]: ≥ 20 µM | Kd [13, 39]: ≥ 20 µM | Kd [14, 39]: ≥ 20 µM
Sequence: DYDQRDYGF

Sequence: EIPGSPGSY
Kd [1, 40]: ≥ 20 µM | Kd [2, 40]: ≥ 20 µM | Kd [3, 40]: 0.105 µM | Kd [4, 40]: ≥ 20 µM | Kd [5, 40]: ≥ 20 µM | Kd [6, 40]: ≥ 20 µM | Kd [7, 40]: ≥ 20 µM | Kd [8, 40]: ≥ 20 µM | Kd [9, 40]: ≥ 20 µM | Kd [10, 40]: ≥ 20 µM | Kd [11, 40]: ≥ 20 µM | Kd [12, 40]: ≥ 20 µM | Kd [13, 40]: ≥ 20 µM | Kd [14, 40]: ≥ 20 µM

Sequence: FLLQLNETI
IC50 [17, 36]: 0.862 µM | IC50 [18, 36]: 0.33 µM

Sequence: GGILPWTKI
IC50 [17, 35]: ≥ 78.1 µM | IC50 [18, 35]: ≥ 125 µM

Kd [21]: ≥ 20 µM | Kd [22]: ≥ 20 µM | Kd [23]: ≥ 20 µM
Sequence: GPSPSHKSV

Sequence: GTLALSLTF
Kd [24, 37]: 1.37 µM | Kd [16, 37]: 0.0362 µM

Sequence: HPGFTILALF
Kd [19, 41]: 0.00104 µM

Sequence: IHKPRPPAT
Kd [1, 34]: ≥ 20 µM | Kd [2, 34]: ≥ 20 µM | Kd [3, 34]: ≥ 20 µM | Kd [4, 34]: ≥ 20 µM | Kd [5, 34]: ≥ 20 µM | Kd [6, 34]: ≥ 20 µM | Kd [7, 34]: ≥ 20 µM | Kd [8, 34]: ≥ 20 µM | Kd [9, 34]: ≥ 20 µM | Kd [10, 34]: ≥ 20 µM | Kd [11, 34]: ≥ 20 µM | Kd [12, 34]: ≥ 20 µM | Kd [13, 34]: ≥ 20 µM | Kd [14, 34]: ≥ 20 µM

Sequence: IYTLEYDGF
Kd ([15]; source organism: Mycobacterium tuberculosis): 0.0748 µM

Sequence: KGRVGRVNP
IC50 ([17]; source organism: Variola virus): 9.76 µM

Sequence: KLRIKGMSY
Kd [25, 37]: 0.00836 µM | Kd [26]: 0.0186 µM | Kd [16, 37]: 0.0385 µM | Kd [27, 37]: 0.0796 µM

Sequence: KQITNELNY
Kd [16, 37]: 0.00756 µM | Kd [27, 37]: 0.00999 µM

Sequence: KSSFFVWVI
IC50 [17, 42]: 0.0694 µM | IC50 [18, 42]: 0.274 µM

Sequence: LLIVSGIFPY
Kd [28, 43]: 11.2 µM | Kd [29, 43]: 7.5 µM | Kd [16, 43]: 0.00226 µM | Kd [27, 43]: ≥ 60 µM

Sequence: LMTGTLAVF
Kd [16, 38]: 0.0004 µM

Sequence: LPTRCRLEI
Kd ([14]; source organism: Orthohantavirus dobravaense): 0.0039 µM | Kd [30]: ≥ 20 µM

Sequence: LPTYLSSRA
Kd [20, 37]: ≥ 23.7 µM

Sequence: MLNTYGEGF
Kd [16, 35]: 0.00225 µM

Sequence: MPSVIEKMET
Kd [19, 44]: 1.61 µM | Kd [20, 44]: 9.48 µM

Sequence: MSRRRIYVL
Kd ([4]; source organism: Cowpox virus): 0.006 µM

Sequence: MVYKLVLLF
Kd [24, 45]: 0.33 µM | Kd [16, 45]: 0.0705 µM

Kd ([15]; source organism: Rhodococcus erythropolis): 0.0006 µM
Sequence: MYLRTIYDL

Sequence: NAVILQNAW
Kd [19, 44]: 0.0806 µM

Sequence: NPTAIFLTT
Kd [19, 44]: 1.68 µM

Sequence: NPTVDGIMTI
Kd [19, 41]: 0.214 µM

Sequence: PPFGDSYIV
Kd [20, 37]: ≥ 23.1 µM

Sequence: PPVSDLKYSW
Kd ([19]; source organism: Dengue virus 4 Dominica/814669/1981): 1.58 µM

Sequence: PYFGPGAEG
IC50 [17, 42]: ≥ 114 µM

Sequence: QHSTTLFKI
IC50 [17, 42]: 2.12 µM | IC50 [18, 42]: ≥ 80 µM

Sequence: REILFHNTM
Kd [1, 46]: ≥ 20 µM | Kd [2, 46]: ≥ 20 µM | Kd [3, 46]: ≥ 20 µM | Kd [4, 46]: 1.31 µM | Kd [5, 46]: ≥ 20 µM | Kd [6, 46]: ≥ 20 µM | Kd [7, 46]: ≥ 20 µM | Kd [8, 46]: 0.00566 µM | Kd [9, 46]: ≥ 20 µM | Kd [10, 46]: ≥ 20 µM | Kd [11, 46]: ≥ 20 µM | Kd [12, 46]: 0.18 µM | Kd [13, 46]: ≥ 20 µM | Kd [14, 46]: ≥ 20 µM

Sequence: RIKQKGILGY
Kd [16, 47]: 0.152 µM | Kd [27, 47]: 1.44 µM

Sequence: RWGGTCHIL
IC50 [17, 36]: 0.0556 µM

Sequence: RYPAIAGGI
Kd ([15]; source organism: Burkholderia mallei): 0.0033 µM

Sequence: SFLLMLCLH
IC50 [17, 36]: ≥ 266 µM

Sequence: SQHNYRQGY
Kd [16, 37]: 0.00347 µM | Kd [27, 37]: 0.0235 µM

Sequence: TIMAAILAY
Kd [28, 44]: 0.156 µM | Kd [29, 44]: ≥ 26.6 µM | Kd [25, 44]: 0.0288 µM | Kd [31]: 0.164 µM | Kd [16, 44]: 0.0733 µM | Kd [27, 44]: 0.117 µM

Sequence: TLITGNMSF
Kd [16, 44]: 0.0911 µM

Sequence: TYVQLESRF
IC50 [17, 36]: 56.4 µM

Sequence: VFLPNPAFI
IC50 ([17]; source organism: Variola virus): 18.5 µM | IC50 ([18]; source organism: Variola virus): 0.715 µM

Sequence: VSKKEGGAMY
Kd [29, 44]: 19.9 µM | Kd [16, 44]: 0.0848 µM | Kd [27, 44]: ≥ 69.7 µM

Sequence: VTRGAVLTY
Kd [29, 41]: 3.11 µM | Kd [16, 41]: 0.03 µM | Kd [27, 41]: ≥ 76.9 µM

Sequence: WEPPERHIL
Kd [32]: ≤ 0.001 µM | Kd [8, 34]: ≥ 20 µM

Sequence: YACKQILHG
Kd [16, 35]: 2.27 µM

Sequence: YMATTILEM
Kd [16, 35]: 0.00217 µM
